Literature values as cited in PMC8405992.
Where two headings read alike, the source gives them in different places. Blank lines part the entries; values can stand above or below the substance they belong to.

How the values were obtained:
[1] = biological target: Ubp6 UBL (Saccharomyces cerevisiae) (UniProt P43593)
[2] = biological target: Dsk2 UBL (Saccharomyces cerevisiae) (UniProt P48510)
[3] = biological target: Ubp6 UBL (Saccharomyces cerevisiae) (UniProt P43593); remark: listed apart in the source
[4] = biological target: Dsk2 UBL (Saccharomyces cerevisiae) (UniProt P48510); remark: listed apart in the source
[5] = biological target: Rad23-UBL UBL (Saccharomyces cerevisiae) (UniProt P32628)
Rad23-UBL UBL (Saccharomyces cerevisiae), sequence (P32628 1-77): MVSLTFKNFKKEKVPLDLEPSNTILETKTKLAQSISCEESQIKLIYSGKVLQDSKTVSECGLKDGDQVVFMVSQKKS

[6] = biological target: Rad23 UBL (Saccharomyces cerevisiae) (UniProt P32628)
Rad23 UBL (Saccharomyces cerevisiae), sequence (P32628 1-77): as above

Rpn1, sequence (P38764 2-993): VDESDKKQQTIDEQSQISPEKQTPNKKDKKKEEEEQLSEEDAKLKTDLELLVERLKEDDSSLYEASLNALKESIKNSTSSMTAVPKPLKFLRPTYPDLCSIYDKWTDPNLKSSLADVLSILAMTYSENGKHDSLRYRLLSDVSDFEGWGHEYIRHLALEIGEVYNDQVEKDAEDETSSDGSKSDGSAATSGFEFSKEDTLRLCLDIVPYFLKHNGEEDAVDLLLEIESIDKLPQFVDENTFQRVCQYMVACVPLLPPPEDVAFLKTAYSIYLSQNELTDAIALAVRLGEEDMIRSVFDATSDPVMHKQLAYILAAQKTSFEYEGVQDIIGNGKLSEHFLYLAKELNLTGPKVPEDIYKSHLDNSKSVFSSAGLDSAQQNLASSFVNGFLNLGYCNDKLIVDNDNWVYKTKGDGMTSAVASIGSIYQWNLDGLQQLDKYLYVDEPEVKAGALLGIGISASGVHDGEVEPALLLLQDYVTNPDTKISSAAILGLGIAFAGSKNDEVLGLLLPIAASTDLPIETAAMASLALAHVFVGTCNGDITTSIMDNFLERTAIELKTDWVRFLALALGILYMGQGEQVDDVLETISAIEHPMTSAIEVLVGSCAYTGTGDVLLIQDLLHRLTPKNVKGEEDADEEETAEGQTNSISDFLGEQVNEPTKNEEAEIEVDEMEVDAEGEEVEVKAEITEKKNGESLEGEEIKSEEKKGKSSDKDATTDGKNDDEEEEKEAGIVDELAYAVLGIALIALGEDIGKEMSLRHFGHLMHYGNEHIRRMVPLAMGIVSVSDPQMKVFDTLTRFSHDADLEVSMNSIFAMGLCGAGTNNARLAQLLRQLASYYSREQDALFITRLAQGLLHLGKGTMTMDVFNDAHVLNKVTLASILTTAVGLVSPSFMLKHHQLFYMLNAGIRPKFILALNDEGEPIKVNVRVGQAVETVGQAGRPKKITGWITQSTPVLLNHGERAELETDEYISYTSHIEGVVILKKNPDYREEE
Rpn1 391-642, sequence (P38764 391-642): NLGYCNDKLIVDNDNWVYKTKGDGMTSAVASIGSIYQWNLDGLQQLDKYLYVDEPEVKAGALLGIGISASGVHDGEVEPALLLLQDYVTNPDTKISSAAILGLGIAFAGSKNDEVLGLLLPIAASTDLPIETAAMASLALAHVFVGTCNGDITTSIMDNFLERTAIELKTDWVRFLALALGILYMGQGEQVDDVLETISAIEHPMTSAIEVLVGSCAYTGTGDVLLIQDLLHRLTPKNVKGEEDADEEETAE
Dsk2 UBL (Saccharomyces cerevisiae), sequence (P48510 1-76): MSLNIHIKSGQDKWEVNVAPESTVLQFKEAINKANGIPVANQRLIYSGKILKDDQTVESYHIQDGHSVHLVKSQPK
Ubp6 UBL (Saccharomyces cerevisiae), sequence (P43593 6-80): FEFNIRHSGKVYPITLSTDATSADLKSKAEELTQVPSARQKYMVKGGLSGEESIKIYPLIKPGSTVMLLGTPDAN

Substance: Rpn1 391-642 (from UniProt P38764)
- Kd [1]: 40 µM
- Kd [2]: 22 µM

- Kd [3]: 2000 nM
- Kd [4]: 12 µM
Substance: Rpn1 (from UniProt P38764)

- Kd [5]: 64 nM
- Kd [6]: 64 nM
Substance: Rpn1 T1 site (from UniProt P38764)
